Patent US6942981
Ends that are not written are not given here. * marks the point of attachment. Biotin = O=C1N[C@H]2[C@H](CS[C@H]2CCCCC(=O)*)N1

Columns and labels:
Test in all cases: A/G assays
[1] = biological target: T1, GST-PTN-4 PDZ domain fusion protein (Homo sapiens (Human), UniProt P29074 517-605)
T1 construct: also called protein-tyrosine phosphatase meg1; not shown: glutathione S-transferase (GST) encoded by pGEX-3X
T1 sequence: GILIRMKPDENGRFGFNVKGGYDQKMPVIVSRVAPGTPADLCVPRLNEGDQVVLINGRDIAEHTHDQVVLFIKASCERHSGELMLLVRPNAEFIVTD

[2] = biological target: T2, GST-KIAA0316 PDZ domain fusion protein (Homo sapiens (Human), UniProt Q14CM0 72-159)
T2 construct: also called K316; not shown: glutathione S-transferase (GST) encoded by pGEX-3X

[3] = biological target: T3, GST-KIAA0303 PDZ domain fusion protein (Homo sapiens (Human), UniProt O15021 1138-1229)
T3 construct: also called K303; not shown: glutathione S-transferase (GST) encoded by pGEX-3X
T3 sequence: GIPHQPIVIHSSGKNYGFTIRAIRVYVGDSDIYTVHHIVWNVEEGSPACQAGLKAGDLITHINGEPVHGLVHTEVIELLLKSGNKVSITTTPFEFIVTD

[4] = biological target: T4, GST-TAX40 PDZ domain fusion protein (human, UniProt Q6B4M5 150-251 (rat entry))
T4 construct: not shown: glutathione S-transferase (GST) encoded by pGEX-3X
T4 sequence: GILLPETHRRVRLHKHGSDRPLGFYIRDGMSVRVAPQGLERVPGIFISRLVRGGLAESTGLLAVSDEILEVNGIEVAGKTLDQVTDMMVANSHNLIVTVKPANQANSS

[5] = biological target: T5, GST-LIM (Human LIM protein) PDZ domain fusion protein (human, UniProt Q96HC4 2-85)
T5 construct: not shown: glutathione S-transferase (GST) encoded by pGEX-3X
T5 sequence: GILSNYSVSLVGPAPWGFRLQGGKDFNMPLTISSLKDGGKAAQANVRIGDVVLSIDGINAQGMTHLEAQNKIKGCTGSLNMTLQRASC

[6] = biological target: T6, GST-41.8 kD (hypothetical 41.8 kD protein) PDZ domain fusion protein (Mus musculus (Mouse), UniProt Q9EQZ7 682-763)
T6 construct: not shown: glutathione S-transferase (GST) encoded by pGEX-3X
T6 sequence: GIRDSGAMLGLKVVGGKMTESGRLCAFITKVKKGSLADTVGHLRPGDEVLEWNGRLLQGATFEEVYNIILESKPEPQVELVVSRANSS

[7] = biological target: T7, GST-TAX33 PDZ domain fusion protein (Homo sapiens (Human), UniProt O14910 103-194)
T7 construct: not shown: glutathione S-transferase (GST) encoded by pGEX-3X
T7 sequence: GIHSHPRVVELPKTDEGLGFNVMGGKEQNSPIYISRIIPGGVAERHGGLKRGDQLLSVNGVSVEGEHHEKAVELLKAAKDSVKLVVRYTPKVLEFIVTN

[8] = biological target: T8, GST-KIAA0559 PDZ domain fusion protein (Homo sapiens (Human), UniProt Q9Y6V0 4489-4594)
T8 construct: also called K559; not shown: glutathione S-transferase (GST) encoded by pGEX-3X
T8 sequence: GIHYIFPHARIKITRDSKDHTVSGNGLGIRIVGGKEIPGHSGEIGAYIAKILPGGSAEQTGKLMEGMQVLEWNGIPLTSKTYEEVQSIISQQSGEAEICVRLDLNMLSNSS

[9] = biological target: T9, GST-TIAM1 PDZ domain fusion protein (Homo sapiens (Human), UniProt Q13009 845-932)
T9 construct: also called T-lymphoma invasion and metastasis inducing protein 1; not shown: glutathione S-transferase (GST) encoded by pGEX-3X

[10] = biological target: T10, GST-MPP1 PDZ domain fusion protein (Homo sapiens (Human), UniProt Q00013 67-152)
T10 construct: also called 55 Kd erythrocyte membrane protein; not shown: glutathione S-transferase (GST) encoded by pGEX-3X
T10 sequence: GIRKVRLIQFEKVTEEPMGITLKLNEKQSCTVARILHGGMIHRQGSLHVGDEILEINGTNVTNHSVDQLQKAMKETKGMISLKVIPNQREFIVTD

[11] = biological target: T11, GST-MINT3 PDZ domain fusion protein (human)
T11 construct: also called human MINT3; not shown: glutathione S-transferase (GST) encoded by pGEX-3X
T11 chain: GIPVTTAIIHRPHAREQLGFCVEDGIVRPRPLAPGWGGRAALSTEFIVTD

[12] = biological target: T12, GST-RGS12 PDZ domain fusion protein (human, UniProt O14924 17-85)
T12 construct: also called human regulator of G-protein signalling 12; not shown: glutathione S-transferase (GST) encoded by pGEX-3X
T12 sequence: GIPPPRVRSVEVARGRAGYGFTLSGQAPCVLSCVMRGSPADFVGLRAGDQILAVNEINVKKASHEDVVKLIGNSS

[13] = biological target: T13, GST-NOS1 PDZ domain fusion protein (human, UniProt P29475 11-101)
T13 construct: also called human neuronal nitric oxide synthase; not shown: glutathione S-transferase (GST) encoded by pGEX-3X

[14] = biological target: T14, GST-CBP (Cytohesin binding protein HE) PDZ domain fusion protein (Homo sapiens (Human), UniProt O60759 74-165)
T14 construct: not shown: glutathione S-transferase (GST) encoded by pGEX-3X
T14 sequence: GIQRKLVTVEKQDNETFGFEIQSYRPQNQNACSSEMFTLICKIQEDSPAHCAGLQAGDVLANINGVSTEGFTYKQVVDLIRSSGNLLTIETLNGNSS

[15] = biological target: T15, GST-prIL16 PDZ domains 1-2 fusion protein (Homo sapiens (Human), UniProt Q14005 1110-1325)
T15 construct: also called putative interleukin 16 precursor; not shown: glutathione S-transferase (GST) encoded by pGEX-3X
T15 sequence: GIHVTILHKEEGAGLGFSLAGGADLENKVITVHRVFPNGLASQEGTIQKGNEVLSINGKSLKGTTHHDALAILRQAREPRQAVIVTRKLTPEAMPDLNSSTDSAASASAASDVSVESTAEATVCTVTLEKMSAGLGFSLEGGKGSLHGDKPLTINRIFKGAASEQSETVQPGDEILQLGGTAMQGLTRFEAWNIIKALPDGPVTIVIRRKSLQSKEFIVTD

[16] = biological target: T16, GST-SYN1a (alpha1-syntrophin) PDZ domain fusion protein (Homo sapiens (Human), UniProt Q13424 84-179)
T16 construct: also called SYN 1 α; not shown: glutathione S-transferase (GST) encoded by pGEX-3X
T16 sequence: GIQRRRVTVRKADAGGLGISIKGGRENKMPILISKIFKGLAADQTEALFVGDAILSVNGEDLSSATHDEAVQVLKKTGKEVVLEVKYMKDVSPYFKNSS

Measured: binding result

T2 sequence (Q14CM0 other isoform, or with tags, fused parts or gaps): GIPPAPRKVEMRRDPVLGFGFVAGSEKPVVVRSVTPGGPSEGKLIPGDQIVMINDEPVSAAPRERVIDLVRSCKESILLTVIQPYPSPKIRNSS
T9 sequence (Q13009 other isoform, or with tags, fused parts or gaps): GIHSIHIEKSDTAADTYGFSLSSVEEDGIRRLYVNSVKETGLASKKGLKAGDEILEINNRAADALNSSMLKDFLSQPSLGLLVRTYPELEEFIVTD
T13 sequence (P29475 other isoform, or with tags, fused parts or gaps): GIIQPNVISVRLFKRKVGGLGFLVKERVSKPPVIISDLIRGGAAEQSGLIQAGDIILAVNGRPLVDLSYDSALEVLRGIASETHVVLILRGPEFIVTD

Biotin-QATSRNGHSARQHVVADTEL [CD34 C-terminal peptide AA7L]
no binding: all assays above

Biotin-TIYENLAPVTTFGKTIA [CD148 peptide AA55L (ending KTIA)]
no binding: all assays above
